Results published in US20210179728A1 (OSE IMMUNOTHERAPEUTICS, published 2021).
Each block holds one binder with its values, some of them ahead of it.

Assays:
[1] = target: T1, recombinant hSIRPa (Sino Biologicals, reference 11612-H08H) (human, UniProt P78324 31-370); assay: competition ELISA on immobilized SIRPa; competitor CD47Fc at 0.04 ug/ml, anti-human Fc detection
T1 construct: also called SIRPa-His; human SIRPa-His; not shown: His tag (histidine tail)
Experimental: (§1) Method: For competitive ELISA assay, recombinant hSIRPa (Sino Biologicals, Beijing, China; reference 11612-H08H) was immobilized on plastic at 0.5 μg/ml in carbonate buffer (pH9.2).

[2] = target: T1, recombinant hSIRPa (Sino Biologicals, …); assay: BLI (Blitz); SIRPa-His on Ni-NTA biosensor pre-incubated with SP-D at 100 ug/ml, then antibody at 20 ug/ml [B, table A]
Experimental: FIG. 6. […] SIRPa-His recombinant protein was immobilized onto a NINTA biosensor at 10 μg/ml and the anti-SIRPa antibody was added at 20 μg/ml (saturating concentration).
In a first step, Sirp-a (His) recombinant protein (Sino Biologicals, Beijing, China; reference 11612-H08H) was immobilized at 10 μg/ml by histidine tail into a Ni-NTA biosensor (Forte Bio; USA; reference 18-0029) for 30 seconds. […] Then, anti-SIRPa antibodies were associated at 20 μg/mL (saturating concentration) for 120 seconds. The dissociation of anti-SIRPa antibody was made in kinetics buffer for 120 seconds. Analysis data was made with the Blitz pro 1.2 software, which calculated association constant (ka) and dissociation constant (kd) and determined the affinity constant KD […].

[3] = target: T1, recombinant hSIRPa (Sino Biologicals, …); assay: SPR (Biacore); SIRPa-His immobilized on CM5 chip, antibody injected
Outline: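 His-tagged recombinant human SIRPa was coupled to a CM5 chip at 5 μg/ml (500 RU). Anti-SIRP antibodies were injected at several concentrations at 40 μl/min on a BIAcore 3000.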

[4] = target: T1, recombinant hSIRPa (Sino Biologicals, …); assay: BLI (Blitz); SIRPa-His on Ni-NTA biosensor, antibody at 20 ug/ml, no SP-D [B, table A]
CD28Fc = target: T2, CD28Fc (human, UniProt P10747 19-152, limits assumed); assay: ELISA: modified antibody on immobilized SIRPa-His, CD28Fc added and detected with mouse anti-human CD28
T2 construct: not shown: Fc; not specified
Description: FIG. 24. Ligand binding assay with the different modified anti-SIRPa antibodies by ELISA.

[5] = target: T1, recombinant hSIRPa (Sino Biologicals, …); assay: ELISA on immobilized SIRPa-His, peroxidase anti-human IgG, DO 450nm [panel ICOSL]
Experimental: Method: For ELISA assay, recombinant hSIRPa (Sino Biologicals, Beijing, China; reference 11612-H08H) was immobilized on plastic at 0.5 μg/ml in carbonate buffer (pH9.2) and different modified anti-SIRPa antibodies were added to measure binding to SIRPa.

[6] = target: T1, recombinant hSIRPa (Sino Biologicals, …); assay: ELISA on immobilized hSIRPa-His, anti-human IgG detection
[7] = target: T3, recombinant hSIRPg-His (Sino Biologicals, reference 11828-H08H) (human, UniProt Q9P1W8 29-360); assay: BLI (Blitz); SIRPg-His on Ni-NTA biosensor, antibody at 10 ug/ml or 20 ug/ml (Example 9) [B, table A]
T3 construct: also called human SIRPg-His; not shown: His tag
T3 sequence (Q9P1W8 29-360 limits assumed): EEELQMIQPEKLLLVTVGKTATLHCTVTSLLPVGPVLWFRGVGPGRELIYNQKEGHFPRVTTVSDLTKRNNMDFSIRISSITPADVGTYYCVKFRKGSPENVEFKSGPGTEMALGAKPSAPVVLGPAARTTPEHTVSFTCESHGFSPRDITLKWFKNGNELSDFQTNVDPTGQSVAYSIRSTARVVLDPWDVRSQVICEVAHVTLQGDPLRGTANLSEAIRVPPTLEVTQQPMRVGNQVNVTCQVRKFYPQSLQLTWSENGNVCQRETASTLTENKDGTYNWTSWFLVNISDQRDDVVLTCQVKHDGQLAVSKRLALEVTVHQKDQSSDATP
Experimental: FIG. 8. (A) Affinity analysis by Blitz of anti-SIRP antibodies on human SIRPg recombinant protein. SIRPg-His recombinant protein was immobilized onto a NINTA biosensor and the indicated antibodies were added at 10 μg/ml. […] (B) Binding analysis by ELISA assay of anti-SIRP antibodies on SIRPg (human SIRPg-His coating and anti-human kappa detection).
(§2) Method: This method was performed with a Blitz (Forte Bio; USA; reference C22-2 No 61010-1). Recombinant hSIRPg-His (Sino Biologicals, Beijing, China; reference 11828-H08H) was immobilized at 10 μg/ml by histidine tail into a Ni-NTA biosensor (Forte Bio; USA; reference 18-0029) for 30 seconds. Then, an anti-SIRPa antibody was associated at 20 μg/mL for 120 seconds. The dissociation of anti-SIRPa antibody was made in kinetics buffer for 120 seconds. Analysis of data was made with the Blitz pro 1.2 software, which calculated association constant (ka) and dissociation constant (kd) and determined the affinity constant KD […].

[8] = target: T4, recombinant hSIRPb-His (Antibodies-online, reference ABIN3077231) (human, UniProt Q5TFQ8 30-371); assay: BLI (Blitz); SIRPb-His on Ni-NTA biosensor, antibody at 20 ug/ml [B, table A]
T4 construct: also called SIRPb-His (Blitz); not shown: His tag
T4 sequence (Q5TFQ8 30-371): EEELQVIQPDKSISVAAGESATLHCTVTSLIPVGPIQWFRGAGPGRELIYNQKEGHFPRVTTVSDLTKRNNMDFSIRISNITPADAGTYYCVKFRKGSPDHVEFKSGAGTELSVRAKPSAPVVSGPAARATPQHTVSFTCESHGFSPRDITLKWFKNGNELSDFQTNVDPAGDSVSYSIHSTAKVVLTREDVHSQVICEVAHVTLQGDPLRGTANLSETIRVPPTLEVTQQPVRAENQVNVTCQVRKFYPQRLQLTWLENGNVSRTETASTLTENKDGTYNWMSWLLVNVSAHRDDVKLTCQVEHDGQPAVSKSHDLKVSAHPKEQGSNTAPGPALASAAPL

[9] = target: T1, recombinant hSIRPa (Sino Biologicals, …); assay: competition ELISA on immobilized SIRPa-His; competitor biotinylated CD47-Fc at 6 ug/ml, streptavidin-peroxidase [second experiment table]
Experimental: as §1

[10] = target: T1, recombinant hSIRPa (Sino Biologicals, …); assay: ELISA on immobilized hSIRPa-His, anti-human IgG detection, first experiment; first experiment
Experimental: Method: The binding activity of the anti-SIRPa antibodies was assessed by ELISA.

[11] = target: T3, recombinant hSIRPg-His (Sino …); assay: Blitz, SIRPg-His on Ni-NTA biosensor
Experimental: as §2

T1 sequence (P78324 31-370 limits assumed): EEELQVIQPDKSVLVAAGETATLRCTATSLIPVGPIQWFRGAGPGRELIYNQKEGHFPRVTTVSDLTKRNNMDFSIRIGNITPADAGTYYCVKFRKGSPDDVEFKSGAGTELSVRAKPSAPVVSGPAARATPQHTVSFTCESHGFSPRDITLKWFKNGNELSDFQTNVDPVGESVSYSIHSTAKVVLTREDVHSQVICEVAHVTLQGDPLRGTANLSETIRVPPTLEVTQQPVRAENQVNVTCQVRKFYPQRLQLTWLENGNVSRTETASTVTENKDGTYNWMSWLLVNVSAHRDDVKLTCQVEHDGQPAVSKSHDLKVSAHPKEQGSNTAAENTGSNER

B2: modified anti-SIRPa HEFLB antibody with ECD of ICOSL on the heavy chain (antibody, human IgG4 S228P, kappa)
heavy: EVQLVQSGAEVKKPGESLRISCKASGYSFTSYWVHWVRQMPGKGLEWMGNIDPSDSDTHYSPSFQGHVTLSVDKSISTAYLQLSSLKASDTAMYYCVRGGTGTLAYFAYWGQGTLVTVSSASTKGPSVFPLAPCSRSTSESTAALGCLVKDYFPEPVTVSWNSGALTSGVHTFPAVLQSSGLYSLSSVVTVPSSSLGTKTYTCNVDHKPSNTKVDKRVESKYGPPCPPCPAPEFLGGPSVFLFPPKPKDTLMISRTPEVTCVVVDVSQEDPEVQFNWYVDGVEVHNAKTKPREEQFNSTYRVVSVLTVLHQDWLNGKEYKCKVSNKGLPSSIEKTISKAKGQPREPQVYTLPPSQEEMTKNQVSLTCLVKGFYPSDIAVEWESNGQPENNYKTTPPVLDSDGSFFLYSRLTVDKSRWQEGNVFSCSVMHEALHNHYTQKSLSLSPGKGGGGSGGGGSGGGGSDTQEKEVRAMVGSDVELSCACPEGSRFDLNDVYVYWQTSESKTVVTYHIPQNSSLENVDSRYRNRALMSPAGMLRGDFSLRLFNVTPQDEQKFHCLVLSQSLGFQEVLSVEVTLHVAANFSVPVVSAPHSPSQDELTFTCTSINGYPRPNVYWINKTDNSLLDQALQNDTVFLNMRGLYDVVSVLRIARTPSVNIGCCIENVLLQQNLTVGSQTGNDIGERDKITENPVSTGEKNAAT
light: DVVMTQSPLSLPVTLGQPASISCRSSQSLVHSYGNTYLYWFQQRPGQSPRLLIYRVSNRFSGVPDRFSGSGSGTDFTLKISRVEAEDVGVYYCFQGTHVPYTFGGGTKVEIKRTVAAPSVFIFPPSDEQLKSGTASVVCLLNNFYPREAKVQWKVDNALQSGNSQESVTEQDSKDSTYSLSSTLTLSKADYEKHKVYACEVTHQGLSSPVTKSFNRGEC
notes: as m25, ECD of ICOSL; also called VHprot+VL (ICOSL); HEF-ICOSL + LB
binding result (CD28Fc): binds | EC50 (read off the curve) [5]: ~8 ng/mL

B3: Kwar23 (antibody, V domains shown)
VH: EVQLQQSGAELVKPGASVKLSCTASGFNIKDYYIHWVQQRTEQGLEWIGRIDPEDGETKYAPKFQDKATITADTSSNTAYLHLSSLTSEDTAVYYCARWGAYWGQGTLVTVSS
VL: QIVLTQSPAIMSASPGEKVTLTCSASSSVSSSYLYWYQQKPGSSPKLWIYSTSNLASGVPARFSGSGSGTSYSLTISSMEAEDAASYFCHQWSSYPRTFGAGTKLELK
EC50 [6]: 3.3 ng/mL | Kd [3]: 0.367 nM | koff [3]: 8.95e-05 s⁻¹ | kon [3]: 244000 M⁻¹ s⁻¹ | Kd [7]: 2.14 nM | koff [7]: 0.000765 s⁻¹ | kon [7]: 357000 M⁻¹ s⁻¹ | Kd [8]: 2.77 nM | koff [8]: 0.000794 s⁻¹ | kon [8]: 286000 M⁻¹ s⁻¹

Further lines, results first:

IC50 (read off the curve) [1]: ~500 ng/mL | Kd [2]: 28.6 nM | koff [2]: 0.0109 s⁻¹ | kon [2]: 380000 M⁻¹ s⁻¹ | Kd [3]: 0.193 nM | koff [3]: 1.2e-05 s⁻¹ | kon [3]: 62300 M⁻¹ s⁻¹ | Kd [4]: 111 nM | koff [4]: 0.00176 s⁻¹ | kon [4]: 15800 M⁻¹ s⁻¹
B1: mouse antibody 18D5 (antibody, mouse IgG2b, kappa)
heavy: QVQLQQPGAELVRPGSSVKLSCKASGYTFTSYWVHWVKQRPIQGLEWIGNIDPSDSDTHYNQKFKDKASLTVDKSSSTAYMQLSSLTFEDSAVYYCVRGGTGTMAWFAYWGQGTLVTVSAAKTTPPSVYPLAPGCGDTTGSSVTLGCLVKGYFPESVTVTWNSGSLSSSVHTFPALLQSGLYTMSSSVTVPSSTWPSQTVTCSVAHPASSTTVDKKLEPSGPISTINPCPPCKECHKCPAPNLEGGPSVFIFPPNIKDVLMISLTPKVTCVVVDVSEDDPDVQISWFVNNVEVHTAQTQTHREDYNSTIRVVSTLPIQHQDWMSGKEFKCKVNNKDLPSPIERTISKIKGLVRAPQVYILPPPAEQLSRKDVSLTCLVVGFNPGDISVEWTSNGHTEENYKDTAPVLDSDGSYFIYSKLNMKTSKWEKTDSFSCNVRHEGLKNYYLKKTISRSPGK
light: DVVMTQTPLSLPVSLGDQASISCRSSQSLVHSYGNTYLYWYLQKPGQSPKLLIYRVSNRFSGVPDRFSGSGSGTDFTLKISRVEAEDLGVYFCFQGTHVPYTFGSGTKLEIKRADAAPTVSIFPPSSEQLTSGGASVVCFLNNFYPKDINVKWKIDGSERQNGVLNSWTDQDSKDSTYSMSSTLTLTKDEYERHNSYTCEATHKTSTSPIVKSFNRNEC
notes: mouse monoclonal anti-human SIRPa antibody; also called m18D5; m18D5 clone

IC50 [9]: 183 ng/mL | EC50 [10]: 4 ng/mL | Kd [3]: 0.315 nM | koff [3]: 0.000249 s⁻¹ | kon [3]: 791000 M⁻¹ s⁻¹ | koff [7]: 0.0123 s⁻¹ | kon [7]: 119000 M⁻¹ s⁻¹ | Kd [8]: 26 nM | koff [8]: 0.00174 s⁻¹ | kon [8]: 66900 M⁻¹ s⁻¹ | Kd [11]: 104 nM
B4: HFLB (antibody, human IgG4 S228P, kappa, V domains shown)
VH: EVQLVQSGAEVKKPGESLRISCKASGYSFTSYWVHWVRQMPGKGLEWMGNIDPSDSDTHYSPSFQGHVTLSVDKSISTAYLQLSSLKASDTAMYYCVRGGTGTMAYFAYWGQGTLVTVSS
VL: DVVMTQSPLSLPVTLGQPASISCRSSQSLVHSYGNTYLYWFQQRPGQSPRLLIYRVSNRFSGVPDRFSGSGSGTDFTLKISRVEAEDVGVYYCFQGTHVPYTFGGGTKVEIKR
notes: humanized 18D5 variant
